Where a chain is given by its changes, count along the chain named. Where “and” joins values, the source holds several entries; their conditions need not be identical. Equal entries are not always repeated.
Tests used:
[1] = target: T1, Tau from human Alzheimer's disease brain (isolated Tau PHF fibrils from Alzheimer's disease patients) (human, UniProt P10636-8 2-441, limits assumed); test: cell-based or functional assay
[2] = target: T2, tau peptide 234-250, N-acetyl-KSPSSAKSRLQTAPVPM-amide (human); test: X-ray crystallography of the Fab/peptide co-complex
T2 peptide: Ac-KSPSSAKSRLQTAPVPM-NH2
From the text: We collected the x-ray diffraction data through a single L14H18 Fab/tau peptide 234-250 crystal. The crystal was suspended in a litho loop and flash frozen under liquid nitrogen, after briefly passing through a cryoprotectant solution containing 30% polyethylene glycol 4000, 0.2M calcium chloride, 0.1M HEPES buffer pH 7.5 and 10% ethylene glycol. The diffraction data was collected on a Pilatis 6M at the 104-1 beamline station at the Diamond synchrotron, Didcot, Oxfordshire, UK. The wavelength of the monochromatic x-ray beam was 0.92819A. The reciprocal space was sampled at 0.2° oscillation steps around the φ goniostat axis. The processed data XIA file provided from the synchrotron facility was used for structure determination
For model building the computer program Coot (Emsley P., Lohkamp B., Scott W. G., Cowton K. Acta Crystallography D Biol Crystallography, 2010 April; 66 (Pt 4): 486-501) was used. Refinement was carried out using the program REFMAC (Murshudov G. N., Skubak P., Lebedev A. A., Pannu N. S., Steiner R. A., Nicholls R. A., Winn M. D., Long F., Vagin A. A. Acta Crystallogr D Biol Crystallogr 2011 April; 67 (Pt 4): 355-67).
The interaction between antibody L14H18 and tau peptide, N-acetyl-[…]-amide (based on human tau isoform 2 sequence 234 to 250), was studied by x-ray crystallography using a co-complex prepared from L14H18 Fab fragment incubated with the peptide. […]

[3] = target: Tau from human frontotemporal dementia brain (human, UniProt P10636-8 2-441, limits assumed); test: cell-based or functional assay
Tau from human frontotemporal dementia brain, sequence (P10636 other isoform, or with tags, fused parts or gaps limits assumed): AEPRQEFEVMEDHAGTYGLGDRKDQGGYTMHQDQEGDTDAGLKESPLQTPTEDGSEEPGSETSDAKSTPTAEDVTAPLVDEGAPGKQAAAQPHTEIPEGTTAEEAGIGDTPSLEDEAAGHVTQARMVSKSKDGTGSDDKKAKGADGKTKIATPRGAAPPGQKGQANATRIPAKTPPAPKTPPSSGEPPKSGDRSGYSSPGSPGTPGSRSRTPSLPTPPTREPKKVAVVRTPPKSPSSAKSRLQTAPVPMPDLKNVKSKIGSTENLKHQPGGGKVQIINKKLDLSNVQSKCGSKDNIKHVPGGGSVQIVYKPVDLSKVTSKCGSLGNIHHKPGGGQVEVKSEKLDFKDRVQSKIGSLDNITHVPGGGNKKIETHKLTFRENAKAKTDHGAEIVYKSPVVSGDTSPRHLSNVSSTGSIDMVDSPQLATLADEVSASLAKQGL

[4] = target: Tau from human progressive supranuclear palsy brain (human, UniProt P10636-8 2-441, limits assumed); test: cell-based or functional assay
[5] = target: human Tau P301L from brain of P301L Tau transgenic mice (human, UniProt P10636-8 2-441, limits assumed); test: cell-based or functional assay
human Tau P301L from brain of P301L Tau transgenic mice, sequence (P10636 other isoform, or with tags, fused parts or gaps P301L P301L P301L P301L limits assumed): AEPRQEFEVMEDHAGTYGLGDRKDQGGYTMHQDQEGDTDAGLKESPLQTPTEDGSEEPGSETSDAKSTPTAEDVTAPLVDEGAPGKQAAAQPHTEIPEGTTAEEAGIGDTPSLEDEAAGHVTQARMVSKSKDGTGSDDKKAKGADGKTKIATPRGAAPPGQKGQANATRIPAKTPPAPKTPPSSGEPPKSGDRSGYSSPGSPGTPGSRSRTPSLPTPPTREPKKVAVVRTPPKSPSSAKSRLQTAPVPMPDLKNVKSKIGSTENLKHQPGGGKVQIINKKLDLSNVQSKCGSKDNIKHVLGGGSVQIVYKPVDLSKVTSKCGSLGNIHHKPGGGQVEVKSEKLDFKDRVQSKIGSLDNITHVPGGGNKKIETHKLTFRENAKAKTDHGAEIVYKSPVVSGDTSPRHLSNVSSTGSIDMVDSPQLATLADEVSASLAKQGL

[6] = target: T1, Tau from human Alzheimer's disease …; test: SPR, Biacore T200, AD-PHF fraction 11 amine-immobilised, mFab as analyte
Description: (§1) Absorption at 280 nm was used to determine the concentration of the Fab stock solutions for the BIAcore analysis. An insoluble Tau protein preparation from Alzheimer's disease patients (AD-PHF, fraction 11), the HEK-derived Tau isoform-2 monomers (amino acids 1-441), and the isoform-2 monomers expressed in E. coli were amine immobilized onto the CMS chip, and binding of anti-Tau mFabs was measured with the Biacore T200 instrument. The buffer HBS-EP from GE Healthcare was used for immobilizations apart from the AD-PHF for which 10 mM acetic acid (pH3.0) was used. The HBS-EP+buffer was supplemented with 300 mM NaCl and 1.25% CM-Dextran (Sigma) and used as the assay buffer. While flow cell (Fc) 1 was used as a reference, the following RU values were obtained for Fc2-4: 44 RU with 5 μg/ml E. coli Tau, 56 RU with 5 μg/m HEK Tau, and 500 RU with a 1:20 diluted solution of the AD-PHF material. Two 60 s cycles of 10 mM Glycine (pH1.7) were used for regeneration. Flow rates of 10 μl/min were used for immobilization and regeneration while a 30 μl/min flow rate was used for analyte binding. For AD-PHF, multiple manual injections were applied to reach 500 RU, including EDC/NHS and EtoA capping. Five start-up cycles and 12 cycles per mFab sample or buffer control were applied, using 90 μl analyte injections for either 180 s or 300 s for dissociation. 11 1:3 dilutions of a 600 nM solution plus buffer were used for each mFab. AB1 was analyzed using the BIAcore test.

[7] = target: T3, monomeric Tau isoform-2 expressed in E. coli (human, UniProt P10636 2-758); test: SPR, Biacore T200, Tau amine-immobilised, mFab as analyte
T3 construct: also called Ecoli iso-2; E. coli Tau
T3 sequence (P10636 other isoform, or with tags, fused parts or gaps limits assumed): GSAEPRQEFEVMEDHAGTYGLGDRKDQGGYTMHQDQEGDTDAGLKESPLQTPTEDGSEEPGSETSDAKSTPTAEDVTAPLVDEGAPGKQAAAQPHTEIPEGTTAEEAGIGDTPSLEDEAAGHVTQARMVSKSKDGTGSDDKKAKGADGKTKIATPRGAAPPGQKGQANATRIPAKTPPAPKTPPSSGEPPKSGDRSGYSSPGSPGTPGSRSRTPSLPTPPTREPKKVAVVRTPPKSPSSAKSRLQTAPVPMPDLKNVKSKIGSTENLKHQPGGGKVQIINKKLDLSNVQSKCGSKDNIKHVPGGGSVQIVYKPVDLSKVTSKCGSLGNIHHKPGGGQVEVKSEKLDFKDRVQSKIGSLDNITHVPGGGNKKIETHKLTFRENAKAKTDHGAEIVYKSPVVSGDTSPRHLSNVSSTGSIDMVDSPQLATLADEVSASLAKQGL
Description: as §1

[8] = target: T4, monomeric Tau isoform-2 derived from mammalian HEK293 cells (human, UniProt P10636 2-758); test: as above
T4 construct: also called HEK iso-2; HEK Tau
Description: as §1

T1 sequence (P10636 other isoform, or with tags, fused parts or gaps limits assumed): as the sequence (P10636 other isoform, or with tags, fused parts or gaps P301L P301L P301L P301L limits assumed) above, with L300P counted along it

B1: Tau-binding antibody having the light chain of SEQ ID No.: 14 and the heavy chain of SEQ ID No.:17 (antibody, human IgG4 S228P, kappa, V domains shown)
VH: EVQLQESGPGLVKPSETLSLTCTVSGFSLTSNDIAWIRQPPGKGLEWMGTIWTDGSTNYNAAVQSRVTISVDTSKNQFSLKLSSVTAADTAVYYCARHRLYYGAFDYWGQGTMVTVSS
VL: DIVMTQTPLSLSVTPGQPASISCRSSQSLEYSDGYTYLEWYLQKPGQSPQLLIYEVSNRFSGVPDRFSGSGSGTDFTLKISRVEAEDVGVYYCFQATHNPYTFGQGTKLEIKR
- IC50 (cellular Tau aggregation assay) [1]: 11 nM
- Imax (maximal efficacy at 300 nM, cellular Tau aggregation assay) [1]: 98%

B2: L14H18 Fab (Fab, V domains shown)
VH: B1 VH with A61T
VL: B1 VL
notes: also called L14H18 Fab fragment; L14H18 Fab protein
- binding result [2]: binds

B3: Tau-binding antibody having the light chain of SEQ ID No.: 14 and the heavy chain of SEQ ID No.:18 (antibody, human IgG4 S228P, kappa, V domains shown)
VH: B1 VH with A61T
VL: B1 VL
- IC50 (cellular Tau aggregation assay) [3]: 1 nM
- Imax (maximal efficacy at 300 nM, cellular Tau aggregation assay) [3]: 99%
- IC50 (cellular Tau aggregation assay) [1]: 12 nM
- Imax (maximal efficacy at 300 nM, cellular Tau aggregation assay) [1]: 98%
- IC50 (cellular Tau aggregation assay) [4]: 42 nM
- Imax (maximal efficacy at 300 nM, cellular Tau aggregation assay) [4]: 100%

B4: AB1 having a rat VL of SEQ ID NO: 7 and a rat VH of SEQ ID NO.:8 (antibody, IgG1, V domains shown)
VH: EVKLEESGPGLMQPSETLSLTCTVSGFSLTSNDIAWVRQPLGKGLVWMGTIWTDGSTNYNSAVQSRLSISRDTSKSQFFLKMNSLQPEDTGTYYCARHRLYYGAFDYWGQGTMVTVS
VL: DIVMTQTPVSLSVTLGDQASISCRSSQSLEYSDGYTYLEWYLQKPGQSPQLLIYEVSNRFSGVPDRFIGSGSGTDFTLKISRVEPEDLGVYYCFQATHNPYTFGAGTKLEIK
- IC50 (cellular Tau aggregation assay) [3]: 3 nM
- Imax (maximal efficacy at 300 nM, cellular Tau aggregation assay) [3]: 97%
- IC50 (cellular Tau aggregation assay) [5]: 30 nM
- Imax (maximal efficacy at 300 nM, cellular Tau aggregation assay) [5]: 89%
- IC50 (cellular Tau aggregation assay) [1]: 4 nM
- Imax (maximal efficacy at 300 nM, cellular Tau aggregation assay) [1]: 98%

B5: mFab AB1 having a rat VL of SEQ ID No.: 7 and a rat VH of SEQ ID No.: 8 (Fab, V domains shown)
VH: B4 VH
VL: B4 VL
notes: also called AB1 Fab; anti-Tau mFab
- Kd [6]: 190 nM and 180 nM
- koff [6]: 0.0096 s⁻¹ and 0.008 s⁻¹
- kon [6]: 52000 M⁻¹ s⁻¹ and 44000 M⁻¹ s⁻¹
- Kd [7]: 160 nM
- koff [7]: 0.011 s⁻¹
- kon [7]: 69000 M⁻¹ s⁻¹ and 73000 M⁻¹ s⁻¹
- Kd [8]: 160 nM and 170 nM
- koff [8]: 0.011 s⁻¹
- kon [8]: 70000 M⁻¹ s⁻¹ and 66000 M⁻¹ s⁻¹
